According to the supplement of paper PMC7877785:
± gives the uncertainty stated by the source.

Assay: self-splicing fitness, log relative to wild type (ln ratio); higher = more splicing; Tetrahymena group I intron in knt gene, E. coli kanamycin selection, DiMSum; sequences stand for … in CUCUCU…GGAGGGAAAAGUUAUCAGGCAUGCACCUGGUAGCUAGUCUUUAAACCAAUAGAUUGCAUCGGUUUAAAAGGCAAGACCGUCAAAUUGCGGGAAAGGGGUCAACAGCCGUUCAGUACCAAGUCUCAGGGGAAACUUUGAGAUGGCCUUGCAAAGGGUAUGGUAAUAAGCUGACGGACAUGGUCCUAACCACGCAGCCAAGUCCUAAGUCAACAGAUCUUCUGUUGAUAUGGAUGCAGUUCACAGACUAAAUGUCGGUCGGGGAAGAUGUAUUCUUCUCAUAAGAUAUAGUCGGACCUCUCCUUAAUGGGAGCUAGCGGAUGAAGUGAUGCAACACUGGAGCCGCUGGGAACUAAUUUGUAUGCGAAAGUAUAUUGAUUAGUUUUGGAGUACUCGUGGUCG
How it was run: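 Fitness was computed with DiMSum as the error-weighted combination of replicate fold changes, kanamycin versus none, each normalised to wild type. The library randomised all eight intron nucleotides of the P1ex region, with the intron placed in the knt kanamycin-resistance gene on pET-22b(+) in E. coli BL21(DE3). Six replicate transformations were grown overnight at 37°C or 30°C on LB agar with or without 25 μg/mL kanamycin, plus 100 μg/mL carbenicillin, 50 μM IPTG and 0.2% rhamnose. Pooled colonies were amplicon-sequenced on an Illumina HiSeq 2500.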

| Sequence | self-splicing fitness (ln) (30 °C) | self-splicing fitness (ln) (37 °C) |
| --- | --- | --- |
| CACCAGCAAUAUUACGGACC | -2.62 ± 0.21 | -1.72 ± 0.21 |
| UCGUAGCAAUAUUACGCUCG | -1.9 ± 0.16 | -1.2 ± 0.23 |
| GUGCAGCAAUAUUACGUAGG | -1.28 ± 0.11 | -1.05 ± 0.16 |
| UCGGAGCAAUAUUACGAGUG | -2.47 ± 0.18 | -2.48 ± 0.19 |
| UGAUAGCAAUAUUACGACAA |  | -2.07 ± 0.35 |
| AUGGAGCAAUAUUACGAACA | -1.55 ± 0.38 |  |
| GUUUAGCAAUAUUACGGUAA | -1.65 ± 0.18 | -1.24 ± 0.14 |
| GCUCAGCAAUAUUACGAAAG | -1.71 ± 0.11 | -1.93 ± 0.13 |
| GUCGAGCAAUAUUACGCACG | -1 ± 0.28 |  |
| GAGAAGCAAUAUUACGCGGU | -2.38 ± 0.16 | -0.663 ± 0.16 |
| GCAGAGCAAUAUUACGCGUG | -2.7 ± 0.24 | -3.6 ± 0.37 |
| CCGGAGCAAUAUUACGACCG | -1.71 ± 0.5 |  |
| GCCCAGCAAUAUUACGCAGA | -3.37 ± 0.28 | -3.47 ± 0.42 |
| CCAAAGCAAUAUUACGACAC |  | -3.02 ± 0.25 |
| ACACAGCAAUAUUACGGGCG | -0.978 ± 0.048 | -0.369 ± 0.062 |
| CCGCAGCAAUAUUACGCCAA | -3.73 ± 0.38 | -2.06 ± 0.34 |
| CGAAAGCAAUAUUACGUUCG | -3.44 ± 0.14 | -2.62 ± 0.15 |
| CACAAGCAAUAUUACGACCA | -1.19 ± 0.16 | -1.05 ± 0.16 |
| AACCAGCAAUAUUACGCGGG | -4.5 ± 0.24 | -3.16 ± 0.24 |
| CCGAAGCAAUAUUACGGAUG | -2.94 ± 0.19 | -0.504 ± 0.095 |
| UCCCAGCAAUAUUACGUUAG | -4.08 ± 0.19 | -2.78 ± 0.18 |
| UGGGAGCAAUAUUACGUGUG | -1.75 ± 0.22 | -2.26 ± 0.33 |
| CAUAAGCAAUAUUACGGGGU | -4.17 ± 0.19 | -2.46 ± 0.15 |
| CUGCAGCAAUAUUACGGCCG | -0.291 ± 0.12 | -0.672 ± 0.14 |
| UCCGAGCAAUAUUACGUUAU | -3.95 ± 0.21 | -1.93 ± 0.19 |

| Sequence | self-splicing fitness (ln) (30 °C) | self-splicing fitness (ln) (37 °C) |
| --- | --- | --- |
| CAUAAGCAAUAUUACGCAUA | -2.48 ± 0.18 | -1.71 ± 0.24 |
| ACUAAGCAAUAUUACGCCGG | -1.03 ± 0.11 | -0.877 ± 0.18 |
| AACCAGCAAUAUUACGUACA | -1.08 ± 0.08 | -0.429 ± 0.11 |
| UGACAGCAAUAUUACGGGGA | -1.25 ± 0.087 | -1.61 ± 0.12 |
| ACGUAGCAAUAUUACGCAUU | -2.8 ± 0.17 | -0.657 ± 0.11 |
| ACCUAGCAAUAUUACGCUUA | -1.73 ± 0.11 | -0.883 ± 0.1 |
| CCCAAGCAAUAUUACGCGAG | -3.22 ± 0.24 | -2.58 ± 0.2 |
| AAGAAGCAAUAUUACGUAAA | -2.27 ± 0.1 | -1.14 ± 0.14 |
| CACAAGCAAUAUUACGUUAU | -2.95 ± 0.098 | -2.7 ± 0.11 |
| GCCAAGCAAUAUUACGUCGC | -2.63 ± 0.14 | -1.23 ± 0.1 |
| CACAAGCAAUAUUACGAUGC | -4.12 ± 0.31 | -2.69 ± 0.27 |
| CAUUAGCAAUAUUACGCCGG | -0.963 ± 0.15 | 0.612 ± 0.24 |
| UUGGAGCAAUAUUACGAAUU | -1.68 ± 0.31 | -0.925 ± 0.41 |
| GCGCAGCAAUAUUACGUUUC | -1.35 ± 0.057 | -0.727 ± 0.074 |
| AUUUAGCAAUAUUACGGACG | -2.26 ± 0.24 | -1.75 ± 0.24 |
| GUGAAGCAAUAUUACGGGCU | -2.08 ± 0.13 | -0.869 ± 0.15 |
| CGUUAGCAAUAUUACGUACA | -0.358 ± 0.11 | -0.966 ± 0.12 |
| CGACAGCAAUAUUACGCCAC |  | 0.365 ± 0.49 |
| AGAUAGCAAUAUUACGAGGU | -2.94 ± 0.24 | -2.17 ± 0.24 |
| CUCCAGCAAUAUUACGUAAA | -3.45 ± 0.17 | -2.17 ± 0.18 |
| GUGAAGCAAUAUUACGGGUU | -1.67 ± 0.069 | -1.4 ± 0.1 |
| GUAUAGCAAUAUUACGGUCU | -1.47 ± 0.11 | -0.548 ± 0.16 |
| AGGUAGCAAUAUUACGGUGA | -1.732 ± 0.017 | -1.06 ± 0.033 |
| CGUUAGCAAUAUUACGACUG | -0.369 ± 0.12 | 0.327 ± 0.14 |
| AUAUAGCAAUAUUACGGCAG | -1.74 ± 0.16 | -1.79 ± 0.19 |

| Sequence | self-splicing fitness (ln) (30 °C) | self-splicing fitness (ln) (37 °C) |
| --- | --- | --- |
| UGUGAGCAAUAUUACGAGUU | -2.72 ± 0.22 | -1.97 ± 0.27 |
| UCACAGCAAUAUUACGUGUG | -4.09 ± 0.15 | -2.13 ± 0.1 |
| AUACAGCAAUAUUACGGAGC | -3.27 ± 0.28 | -2.78 ± 0.26 |
| CCCCAGCAAUAUUACGUACC | -4.07 ± 0.18 | -3.36 ± 0.35 |
| UCCAAGCAAUAUUACGUUUA | -3.15 ± 0.12 | -1.98 ± 0.11 |
| UCAGAGCAAUAUUACGCACA | -1.74 ± 0.29 | 0.554 ± 0.43 |
| CAAGAGCAAUAUUACGAUGU | -3.88 ± 0.23 | -2.73 ± 0.25 |
| ACAAAGCAAUAUUACGUGGA | -3.55 ± 0.15 | -2.44 ± 0.11 |
| AGCAAGCAAUAUUACGGACA | -1.12 ± 0.14 | -0.766 ± 0.14 |
| ACUUAGCAAUAUUACGAAUG | -2.24 ± 0.11 | -1.13 ± 0.12 |
| AAGUAGCAAUAUUACGACUA | -0.0153 ± 0.098 | 0.0263 ± 0.13 |
| AAACAGCAAUAUUACGCUGA | -3.16 ± 0.14 | -1.52 ± 0.11 |
| AAUUAGCAAUAUUACGUAGC | -3.24 ± 0.25 | -1.08 ± 0.32 |
| CUGAAGCAAUAUUACGGCCU | -4.04 ± 0.26 | -2.43 ± 0.33 |
| CCGUAGCAAUAUUACGUAUC |  | -2.65 ± 0.29 |
| UGGGAGCAAUAUUACGCUAG | -2.79 ± 0.32 | -1.99 ± 0.36 |
| CUGCAGCAAUAUUACGAGUU | -3.55 ± 0.21 | -2.83 ± 0.28 |
| UUGUAGCAAUAUUACGCAUA | -1.81 ± 0.16 | -1.31 ± 0.15 |
| AGGCAGCAAUAUUACGUGUA | -2.19 ± 0.1 | -1.09 ± 0.11 |
| ACUUAGCAAUAUUACGAAGU | -3.91 ± 0.22 | -1.61 ± 0.19 |
| UAAAAGCAAUAUUACGUCGA | -1.39 ± 0.1 | -0.424 ± 0.12 |
| GAACAGCAAUAUUACGACUA | -0.346 ± 0.085 | -0.46 ± 0.097 |
| AAACAGCAAUAUUACGUUGG | -3.61 ± 0.1 | -2.43 ± 0.11 |
| GAUCAGCAAUAUUACGUUUC | -2.26 ± 0.12 | -0.791 ± 0.1 |
| ACCGAGCAAUAUUACGGGAC | -2.88 ± 0.13 | -2.49 ± 0.18 |

| Sequence | self-splicing fitness (ln) (30 °C) | self-splicing fitness (ln) (37 °C) |
| --- | --- | --- |
| GCAAAGCAAUAUUACGACAU | -0.736 ± 0.012 | -0.158 ± 0.032 |
| AGAUAGCAAUAUUACGCGGC | -3.16 ± 0.22 | -3.59 ± 0.42 |
| CAGCAGCAAUAUUACGUGGA | -3.09 ± 0.13 | -1.84 ± 0.12 |
| ACUAAGCAAUAUUACGAUCA | -1.15 ± 0.072 | -0.58 ± 0.073 |
| AAUUAGCAAUAUUACGGAUA | -1.75 ± 0.11 | -0.926 ± 0.11 |
| UGGAAGCAAUAUUACGUGUG | -1.06 ± 0.073 | -0.706 ± 0.091 |
| AACGAGCAAUAUUACGUACG | -4.19 ± 0.46 | -1.63 ± 0.35 |
| UGUGAGCAAUAUUACGUCCU | -0.548 ± 0.1 | -1.51 ± 0.18 |
| AGGAAGCAAUAUUACGUACC | -0.353 ± 0.12 | -0.748 ± 0.16 |
| CGACAGCAAUAUUACGGGGG | -2.92 ± 0.094 | -2.51 ± 0.11 |
| AAACAGCAAUAUUACGGCAU | -0.814 ± 0.066 | -0.78 ± 0.08 |
| UUACAGCAAUAUUACGUGCG | -0.895 ± 0.092 | -0.0854 ± 0.12 |
| GAUGAGCAAUAUUACGUUGA | -3.32 ± 0.43 | -1.5 ± 0.2 |
| GCUAAGCAAUAUUACGAGUA | -1.73 ± 0.18 | -1.31 ± 0.12 |
| AUAGAGCAAUAUUACGUACA | -1.62 ± 0.098 | -0.944 ± 0.12 |
| AGGUAGCAAUAUUACGGUCG | -0.351 ± 0.014 | -0.0478 ± 0.034 |
| AUGUAGCAAUAUUACGCAUC | -3.66 ± 0.27 | -2.51 ± 0.45 |
| ACUGAGCAAUAUUACGCUGU | -3.42 ± 0.28 | -1.7 ± 0.25 |
| AAACAGCAAUAUUACGCGGA | -2.23 ± 0.11 | -1.02 ± 0.093 |
| UUAUAGCAAUAUUACGCGGU | -3.14 ± 0.28 | -1.64 ± 0.28 |
| CCUUAGCAAUAUUACGUGGU | -4.41 ± 0.36 | -1.91 ± 0.23 |
| UACAAGCAAUAUUACGCCUG | -0.585 ± 0.081 | 0.17 ± 0.11 |
